Data reported in patent US20260115290A1.

Target: HLA-DR on K562-CD19-HLA-DR cells (alpha chain UniProtKB-P01903, beta chain UniProtKB-P04229) (human) (UniProt P01903)
Assay: cell-based or functional assay

CD107a+ population, single against dual CAR-NK cells, K562-CD19-HLA-DR target cells: 2 to 3 fold | IFN-γ production (ELISA), dual against single CAR-NK cells with K562-CD19-HLA-DR cells: 70 % reduction
Substance: anti-HLA-DR iCAR (FLAG tag, scFv of antibody 1D09C3, PD-1 hinge, transmembrane and intracellular domains) (from UniProt Q15116 145-288) (receptor)
